# According to publication PMC10570377, “DARPins detect the formation of hetero-tetramers of p63 and p73 in epithelial tissues and in squamous cell carcinoma” (Cell Death & Disease, 2023):
# B1: p63 oligomerization domain (OD), homo-tetramer (domain or fragment)
# chain: DDELLYLPVRGRETYEMLLKIKESLELMQYLPQHTIETYRQQQQQQHQHLLQKQTSIQS
# notes: p63 oligomerization domain (OD), wild type; also called p63 OD; p63 homo-OD; source: E. coli, purified; not shown: His10, N-terminal, cleaved
# Key:
# [1] = biological target: the molecule itself; assay: crystal structure; complexes of OD hetero-tetramer and DARPin mixed 1:2, isolated by SEC, sitting drop at 20 °C
# [2] = biological target: B1; assay: NMR titration; [15N,1H] BEST-TROSY spectra at 25 °C; equimolar mixture of unlabelled p63 OD and 15N-Lys-labelled p73 OD, DARPin added at one ratio (2.4:1); 20 mM K2HPO4 pH 7.8, 100 mM KCl, 0.5 mM EDTA; settings: both partners purified
Binder,binding result [1],binding result [2]
"DEDTYYLQVRGRENFEILMKLKESLELMELVPQPLVDSYRQQQQLLQR (domain or fragment, p73 oligomerization domain (OD), wild type; 15N-labelled on lysine for NMR; also called p73 OD; p73 homo-OD; source: E. coli, purified; not shown: His10, N-terminal, cleaved) [p73 oligomerization domain (OD), homo-tetramer]",binds,binds
"DEDTYYLQVRGRKNFEILMKLKESLELMELVPQPLVDSYRQQQQLLQR (domain or fragment, UniProt O15350 351-398, looked up, p73 oligomerization domain (OD), amino acids 351-398, E363K; The p73 chain of m3; also called p73 (amino acids 351–398, E363K); p73 OD E363K; source: E. coli BL21(DE3) Rosetta, purified; not shown: His10, N-terminal, cleaved) [p73 oligomerization domain E363K]",binds,–
B1,binds,–
